Source: article PMC4610628 (Immunology, 2015)
“And” between values parts separate entries of the source, which are not always exact repeats. Equal values may be shown once. Square brackets hold non-standard residues; d marks the D form. Ends that are not written are not given here. * marks the point of attachment. Biotin = O=C1N[C@H]2[C@H](CS[C@H]2CCCCC(=O)*)N1; pY = N[C@@H](Cc1ccc(OP(=O)(O)O)cc1)C(=O)O

T1: SHIP SH2 domain from SHIP-1, recombinant human (human, UniProt Q92835 5-101)
T1 construct: SH2 domain of the inositol phosphatase SHIP-1, human; source: recombinant, produced in-house and purified on the day of the experiment
T1 sequence (looked up): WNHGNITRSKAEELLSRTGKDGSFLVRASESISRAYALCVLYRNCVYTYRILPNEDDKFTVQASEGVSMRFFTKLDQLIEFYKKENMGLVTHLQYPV

T2: signalling lymphocyte activation molecule-associated protein (SAP), full length, recombinant human (human, UniProt O60880 1-128)
T2 construct: SAP (SH2D1A), human, full length recombinant protein; called 'soluble monomeric recombinant human SAP' in the results; also called SH2D1A; source: recombinant, produced in-house and purified on the day of the experiment
T2 sequence (looked up): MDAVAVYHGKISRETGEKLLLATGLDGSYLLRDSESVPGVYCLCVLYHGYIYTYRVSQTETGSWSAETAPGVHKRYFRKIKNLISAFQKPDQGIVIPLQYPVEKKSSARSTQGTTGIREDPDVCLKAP


How the values were obtained:
[1] = target: T1, SHIP SH2 domain from SHIP-1, …; test: SPR; BIAcore 3000; biotinylated phosphopeptides immobilised on a streptavidin-coated CM5 chip (~30 RU), purified recombinant protein passed over; 37°; 10 mM HEPES pH 7·4, 150 mM KCl, 10 mM EDTA, 0·005% Tween 20; equilibrium data, one-site binding curve; conditions: both partners purified
[2] = target: T2, signalling lymphocyte activation …; test: as above; conditions: both partners purified
[3] = target: CD229 more distal ITSM phosphopeptide (TIpYCS) (human); test: SPR; data not shown; SAP on tyrosine phosphorylated CD229 distal ITSM peptide, 37°C, n = 3

| Binder | Kd [1] | Kd [2] | Kd [3] [µM] |
| --- | --- | --- | --- |
| Biotin-GENTM[pY]AQVFN (CD229 (Ly9, SLAMF3), human, first (membrane proximal) ITSM, natural variant Met602 of SNP rs509749; also called CD229 Met602 ITSM; TMpYAQV; source: synthetic peptide; bought: Peptide Protein Research Ltd) [CD229M phosphopeptide (CD229 ITSM1, Met602 variant)] | 23 to 92 µM and > 50 µM | 1.7 µM and 1.5 to 2 µM |  |
| Biotin-GENTV[pY]AQVFN (CD229 (Ly9, SLAMF3), human, first (membrane proximal) ITSM, natural variant Val602 of SNP rs509749; also called CD229 Val602 ITSM; TVpYAQV; source: synthetic peptide; bought: Peptide Protein Research Ltd) [CD229V phosphopeptide (CD229 ITSM1, Val602 variant)] | 100 µM and 82 to 110 µM | 3.4 µM and 2.8 µM and 4.4 µM |  |
| Biotin-EFLTI[pY]EDVKD (CD244 (2B4, SLAMF4), human, ITSM1; source: synthetic peptide; bought: Peptide Protein Research Ltd) [CD244-ITSM1 phosphopeptide] | 25 µM |  |  |

Further lines, results first:

| Kd [1] | Kd [2] | Kd [3] [µM] | Binder |
| --- | --- | --- | --- |
| 0.36 µM |  |  | Biotin-ADKVGAENTIT[pY]SLLMHPDA (FcγRIIb, human, ITIM; source: synthetic peptide; bought: Peptide Protein Research Ltd) [FcγRIIb-ITIM phosphopeptide] |
| 2.4 µM |  |  | Biotin-GGSTI[pY]SMIQS (CD244 (2B4, SLAMF4), human, ITSM2; source: synthetic peptide; bought: Peptide Protein Research Ltd) [CD244-ITSM2 phosphopeptide] |
|  |  | 0.1 | signalling lymphocyte activation molecule-associated protein (SAP), full length, recombinant human (natural protein) MDAVAVYHGKISRETGEKLLLATGLDGSYLLRDSESVPGVYCLCVLYHGYIYTYRVSQTETGSWSAETAPGVHKRYFRKIKNLISAFQKPDQGIVIPLQYPVEKKSSARSTQGTTGIREDPDVCLKAP |
